Laboratory results as given in paper PMC9727190, “Characterization and identification of a novel chromosomal class C β-lactamase, LAQ-1, and comparative genomic analysis of a multidrug resistance plasmid in Lelliottia amnigena P13” (Frontiers in Microbiology, 2022).

Legend:
[1] = target: T1, LAQ-1 (Lelliottia amnigena, UniProt A0A8F5JT47); test: inhibition of nitrocefin hydrolysis, UV-VIS spectrophotometry; assay type: biochemical
T1 construct: gene blaLAQ

[2] = test system: CO/N=C(\C(=O)N[C@@H]1C(=O)N2C(C(=O)[O-])=C(C[N+]3(C)CCCC3)CS[C@H]12)c1csc(N)n1; test: hydrolysis initial rates, UV-VIS spectrophotometry, Michaelis-Menten fit; assay type: biochemical, Lelliottia amnigena; conditions: 10 mM phosphate buffer pH 7.0, 37°C
Description: (§1) hydrolysis initial rates, UV-VIS spectrophotometry, Michaelis-Menten fit on LAQ-1

[3] = test system: CO[C@@]1(NC(=O)Cc2cccs2)C(=O)N2C(C(=O)O)=C(COC(N)=O)CS[C@@H]21; test: as above; assay type: biochemical, Lelliottia amnigena; conditions: 10 mM phosphate buffer pH 7.0, 37°C
Description: as §1

[4] = test system: CC1(C)S[C@@H]2[C@H](NC(=O)[C@H](N)c3ccccc3)C(=O)N2[C@H]1C(=O)O; test: as above; assay type: biochemical, Lelliottia amnigena; conditions: 10 mM phosphate buffer pH 7.0, 37°C
Description: as §1

[5] = test system: Cc1nnc(SCC2=C(C(=O)O)N3C(=O)[C@@H](NC(=O)Cn4cnnn4)[C@H]3SC2)s1; test: as above; assay type: biochemical, Lelliottia amnigena; conditions: 10 mM phosphate buffer pH 7.0, 37°C
Description: as §1

[6] = test system: CCN1CCN(C(=O)N[C@@H](C(=O)N[C@@H]2C(=O)N3[C@@H]2SC(C)(C)[C@@H]3C(=O)O)c2ccccc2)C(=O)C1=O; test: as above; assay type: biochemical, Lelliottia amnigena; conditions: 10 mM phosphate buffer pH 7.0, 37°C
Description: as §1

[7] = test system: CC(C)(O/N=C(\C(=O)N[C@@H]1C(=O)N2C(C(=O)[O-])=C(C[n+]3ccccc3)CS[C@H]12)c1csc(N)n1)C(=O)O; test: as above; assay type: biochemical, Lelliottia amnigena; conditions: 10 mM phosphate buffer pH 7.0, 37°C
Description: as §1

T1 sequence (A0A8F5JT47 entry or part of it): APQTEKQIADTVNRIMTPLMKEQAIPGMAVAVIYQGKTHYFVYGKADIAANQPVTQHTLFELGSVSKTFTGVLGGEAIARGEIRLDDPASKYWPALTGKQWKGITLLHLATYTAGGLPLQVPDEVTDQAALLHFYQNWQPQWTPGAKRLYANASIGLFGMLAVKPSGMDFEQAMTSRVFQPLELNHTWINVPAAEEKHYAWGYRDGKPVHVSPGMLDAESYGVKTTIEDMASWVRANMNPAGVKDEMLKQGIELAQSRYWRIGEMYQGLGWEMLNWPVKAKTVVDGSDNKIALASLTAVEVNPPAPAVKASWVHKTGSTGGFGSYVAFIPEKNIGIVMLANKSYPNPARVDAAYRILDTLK

| Compound | IC50 [1] | Km [2] | kcat [2] | kcat/Km [2] | Km [3] | kcat [3] | kcat/Km [3] | Km [4] | kcat [4] | kcat/Km [4] | Km [5] | kcat [5] | kcat/Km [5] | Km [6] | kcat [6] | kcat/Km [6] | Km [7] | kcat [7] | kcat/Km [7] |
| --- | --- | --- | --- | --- | --- | --- | --- | --- | --- | --- | --- | --- | --- | --- | --- | --- | --- | --- | --- |
| NC(=O)[C@@H]1CC[C@@H]2CN1C(=O)N2OS(=O)(=O)O [avibactam] | 1.45 nM |  |  |  |  |  |  |  |  |  |  |  |  |  |  |  |  |  |  |
| Nc1nc2c(ncn2[C@@H]2O[C@H](COP(=O)(O)O)[C@@H](O)[C@H]2O)c(=O)[nH]1 [GMP] | 2630 nM |  |  |  |  |  |  |  |  |  |  |  |  |  |  |  |  |  |  |
| LAQ-1 (Lelliottia amnigena) |  | 57.05 µM | 467 s⁻¹ | 8.18e+06 M⁻¹ s⁻¹ | 65.4 µM | 1110 s⁻¹ | 1.69e+07 M⁻¹ s⁻¹ | 436.1 µM | 9140 s⁻¹ | 2.1e+07 M⁻¹ s⁻¹ | 645 µM | 25700 s⁻¹ | 3.99e+07 M⁻¹ s⁻¹ | 87.56 µM | 9430 s⁻¹ | 1.08e+08 M⁻¹ s⁻¹ | 140 µM | 642 s⁻¹ | 4.58e+06 M⁻¹ s⁻¹ |
